Target: gima7_human GIMAP7 (UniProt Q8NHV1)
Sequence (Q8NHV1 whole entry): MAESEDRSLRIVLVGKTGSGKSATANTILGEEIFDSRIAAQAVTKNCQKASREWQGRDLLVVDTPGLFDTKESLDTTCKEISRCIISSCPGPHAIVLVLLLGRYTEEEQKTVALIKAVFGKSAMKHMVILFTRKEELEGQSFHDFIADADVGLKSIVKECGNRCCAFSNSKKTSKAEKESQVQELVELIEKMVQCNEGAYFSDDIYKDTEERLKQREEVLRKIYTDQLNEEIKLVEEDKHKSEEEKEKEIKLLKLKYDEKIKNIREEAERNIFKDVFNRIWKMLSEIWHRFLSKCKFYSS

Sequence of GTPase IMAP family member 2 (Homo sapiens), Q9UG22 R117D (Q9UG22 whole entry R117D): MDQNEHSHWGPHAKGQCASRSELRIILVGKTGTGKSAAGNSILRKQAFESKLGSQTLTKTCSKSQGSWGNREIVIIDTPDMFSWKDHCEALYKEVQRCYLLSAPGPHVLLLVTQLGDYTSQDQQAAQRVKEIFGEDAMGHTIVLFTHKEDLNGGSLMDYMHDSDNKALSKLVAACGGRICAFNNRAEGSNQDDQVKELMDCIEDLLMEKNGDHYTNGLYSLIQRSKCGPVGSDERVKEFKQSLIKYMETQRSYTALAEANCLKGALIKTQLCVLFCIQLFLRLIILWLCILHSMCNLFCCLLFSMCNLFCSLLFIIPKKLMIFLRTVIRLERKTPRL
Sequence of GTPase IMAP family member 2 (Homo sapiens), Q9UG22 S54A (Q9UG22 whole entry S54A): as the sequence (Q9UG22 whole entry R117D) above, with S54A, D117R counted along it

Substance: GTPase IMAP family member 2 (Homo sapiens), Q9UG22 S54A
- effect of a mutation on the interaction: disrupting interaction strength

Substance: GTPase IMAP family member 2 (Homo sapiens), Q9UG22 R117D
- effect of a mutation on the interaction: disrupting interaction strength

From IntAct's records for PubMed 23454188
